{"source": "patent US20250011428A1", "about": "(Novartis, published 2025)", "key": {"hCD3epsilon-FC antigen [1]": {"biological_target": "T1, hCD3epsilon-FC antigen (human, UniProt P07766 23-126)", "T1 construct": "immobilized by amine coupling on CM5; also called human CD3epsilon", "T1 sequence (P07766 23-126 limits assumed)": "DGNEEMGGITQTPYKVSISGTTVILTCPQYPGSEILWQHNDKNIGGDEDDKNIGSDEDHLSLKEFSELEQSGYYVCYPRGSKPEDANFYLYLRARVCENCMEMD", "test": "SPR Biacore T200; hCD3epsilon-FC amine-coupled on CM5, IgG as analyte", "set-up": "unit not given here"}, "[2]": {"biological_target": "T2, recombinant human hFcγR3a (F158V) (human, UniProt P08637 17-208)", "T2 construct": "also called FcγRIII", "T2 sequence (P08637 17-208 F176V)": "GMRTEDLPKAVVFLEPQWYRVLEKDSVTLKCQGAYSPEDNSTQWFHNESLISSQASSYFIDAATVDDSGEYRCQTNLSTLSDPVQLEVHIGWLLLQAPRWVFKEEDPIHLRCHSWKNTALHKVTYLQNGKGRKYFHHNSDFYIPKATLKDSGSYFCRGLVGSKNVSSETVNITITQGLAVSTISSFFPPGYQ", "test": "SPR max response, normalized to parental (=100)", "experimental": "(§1) Kinetics and binding capacity were measured on a BIAcore® T200 instrument (GE Healthcare, Glattbrugg, Switzerland) at room temperature, with proteins diluted in running buffer 10 mM NaP, 150 mM NaCl, 0.05% Tween 20, pH7.6. A CM5 sensor chip (Sensor Chip SA, GE Healthcare Life Sciences) was used to immobilized engineered immunoglobulins by amine coupling. Then, recombinant human hFcγR1a, or recombinant human hFcγR3a (F158V), or recombinant human hFcRn, or hC1q was used as the analyte.\n(§2) Binding data were acquired by subsequent injection of analyte dilution series on the reference and measuring flow cells. Zero concentration samples (running buffer only) were included to allow double referencing during data evaluation. For data evaluation, doubled referenced sensorgrams were analyzed and the maximum response reached during the experiment was monitored. Maximum response describes the binding capacity of the surface in terms of the response at saturation. Finally, measured maximum responses were normalized to the one measured using parental immunoglobulin (not engineered)."}, "recombinant human hFcRn": {"biological_target": "T3, recombinant human hFcRn (human, UniProt P55899 24-297; P61769 21-119)", "T3 construct": "FcRn is normally a heterodimer with it", "T3 sequence (P55899 24-297 limits assumed, chain 1 of 2)": "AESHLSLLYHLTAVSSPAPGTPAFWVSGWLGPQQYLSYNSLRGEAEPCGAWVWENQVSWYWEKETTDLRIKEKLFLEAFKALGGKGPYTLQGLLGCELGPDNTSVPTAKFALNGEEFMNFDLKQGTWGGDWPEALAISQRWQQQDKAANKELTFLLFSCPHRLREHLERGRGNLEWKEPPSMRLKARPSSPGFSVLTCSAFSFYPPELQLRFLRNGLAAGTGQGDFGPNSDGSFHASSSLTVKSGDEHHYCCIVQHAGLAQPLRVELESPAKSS", "T3 sequence (P61769 21-119 limits assumed, chain 2 of 2)": "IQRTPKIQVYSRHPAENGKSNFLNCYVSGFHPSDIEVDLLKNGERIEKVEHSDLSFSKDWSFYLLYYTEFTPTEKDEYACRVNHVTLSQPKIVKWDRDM", "test": "SPR Biacore T200; IgG amine-coupled on CM5, hFcRn as analyte; response normalized to parental (=100)", "experimental": "as §1, §2"}, "[3]": {"biological_target": "T4, recombinant human hFcγR1a (human, UniProt P12314 16-288, limits assumed)", "T4 construct": "recombinant, analyte in SPR; also called FcγRI", "T4 sequence (P12314 16-288 limits assumed)": "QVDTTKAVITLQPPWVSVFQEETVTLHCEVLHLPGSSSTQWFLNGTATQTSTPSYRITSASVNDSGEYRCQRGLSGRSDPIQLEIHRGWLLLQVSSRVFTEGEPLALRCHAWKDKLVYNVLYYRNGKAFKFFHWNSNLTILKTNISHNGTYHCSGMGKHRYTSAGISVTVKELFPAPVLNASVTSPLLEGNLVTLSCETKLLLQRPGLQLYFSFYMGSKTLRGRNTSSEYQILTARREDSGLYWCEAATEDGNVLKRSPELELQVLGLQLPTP", "test": "SPR Biacore T200; IgG amine-coupled on CM5, receptor as analyte; response normalized to parental (=100);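 also: measured at room temperature in pH 7.6 phosphate buffer with Tween 20, double-referenced sensorgrams, maximum response taken as binding capacity at saturation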", "experimental": "as §1, §2"}, "hCD3epsilon-FC antigen [4]": {"biological_target": "T1, hCD3epsilon-FC antigen", "test": "SPR Biacore T200; hCD3epsilon-FC amine-coupled on CM5, IgG as analyte; 1:1 model, apparent KD (bivalent analyte)", "experimental": "A CM5 sensor chip (Sensor Chip SA, GE Healthcare Life Sciences) was used to immobilize hCD3epsilon-FC antigen by amine coupling. Then, engineered anti-CD3 hIgG1 were used as the analyte.\nBinding data were acquired by subsequent injection of analyte dilution series on the reference and measuring flow cells. Zero concentration samples (running buffer only) were included to allow double referencing during data evaluation. For data evaluation, doubled referenced sensorgrams were analyzed by applying a 1:1 binding model analysis to generate the equilibrium dissociation constant (KD). Binding constant described Table 7 are considered as apparent KD since immunoglobulins used as analyte are bivalent for the immobilized antigen. In addition, maximum response reached during the experiment was monitored. Maximum response describes the binding capacity of the surface in terms of the response at saturation. Finally, measured maximum responses were normalized to the one measured using parental immunoglobulin (not engineered)."}, "hC1q": {"biological_target": "hC1q (human, UniProt P02745 23-245; P02746 28-253; P02747 29-245)", "sequence (P02745 23-245 limits assumed, chain 1 of 3)": "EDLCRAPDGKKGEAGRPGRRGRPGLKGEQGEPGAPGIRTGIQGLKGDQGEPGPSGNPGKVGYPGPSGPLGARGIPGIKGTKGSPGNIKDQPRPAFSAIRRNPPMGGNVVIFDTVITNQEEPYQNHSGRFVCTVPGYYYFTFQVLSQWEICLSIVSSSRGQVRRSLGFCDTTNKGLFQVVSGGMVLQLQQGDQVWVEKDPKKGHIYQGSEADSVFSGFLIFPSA", "sequence (P02746 28-253 limits assumed, chain 2 of 3)": "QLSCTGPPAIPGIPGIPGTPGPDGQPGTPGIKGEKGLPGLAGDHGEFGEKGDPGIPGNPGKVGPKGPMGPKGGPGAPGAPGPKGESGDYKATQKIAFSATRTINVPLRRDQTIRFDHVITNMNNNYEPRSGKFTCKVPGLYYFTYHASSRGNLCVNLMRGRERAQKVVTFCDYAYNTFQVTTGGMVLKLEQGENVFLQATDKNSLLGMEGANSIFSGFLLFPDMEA", "sequence (P02747 29-245 limits assumed, chain 3 of 3)": "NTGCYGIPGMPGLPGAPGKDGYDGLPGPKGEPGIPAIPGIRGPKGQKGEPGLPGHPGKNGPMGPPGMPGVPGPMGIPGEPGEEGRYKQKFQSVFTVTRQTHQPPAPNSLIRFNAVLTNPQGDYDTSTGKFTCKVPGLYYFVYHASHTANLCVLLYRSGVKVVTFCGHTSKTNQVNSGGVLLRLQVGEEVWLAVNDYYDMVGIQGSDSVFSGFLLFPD", "test": "SPR max response, normalized to parental (=100)", "experimental": "as §1, §2"}, "[5]": {"biological_target": "T2, recombinant human hFcγR3a (F158V)", "test": "SPR Biacore T200; IgG amine-coupled on CM5, receptor as analyte; response normalized to parental (=100)", "experimental": "as §1, §2"}}, "data": [{"binder": "CD3_2_YTE (antibody, human IgG1, lambda, hIgG1) heavy: EVQLVESGGGLVQPGGSLKLSCAASGFTFNTYAMNWVRQASGKGLEWVGRIRSKYNNYATYYADSVKDRFTISRDDSKSTLYLQMNSLKTEDTAVYYCVRHGNFGNSYVSWFAYWGQGTLVTVSSASTKGPSVFPLAPSSKSTSGGTAALGCLVKDYFPEPVTVSWNSGALTSGVHTFPAVLQSSGLYSLSSVVTVPSSSLGTQTYICNVNHKPSNTKVDKRVEPKSCDKTHTCPPCPAPELCCHPSVFLFPPKPKDTLYITREPEVTCVVVGLRHEDPEVKFNWYVDGVEVHNAKTKPREEQYCGCYRVVSVLTVLHQDWLNGKEYKCKVSNKALPAPIEKTISKAKGQPREPQVYTLPPSRDELTKNQVSLTCLVKGFYPSDIAVEWESNGQPENNYKTTPPVLDSDGSFFLYSKLTVDKSRWQQGNVFSCSVMHEALHNHYTQKSLSLSPGK light: QAVVTQEPSLTVSPGGTVTLTCRSSTGAVTTSNYANWVQQKPGQAPRGLIGGTNKRAPWTPARFSGSLLGDKAALTLSGAQPEDEAEYFCALWYSNLWVFGGGTKLTVLGQPKAAPSVTLFPPSSEELQANKATLVCLISDFYPGAVTVAWKADSSPVKAGVETTTPSKQSNNKYAASSYLSLTPEQWKSHRSYSCQVTHEGSTVEKTVAPTECS", "values": [{"measurement": "Maximum response at 125 nM hIgG1", "setting": "hCD3epsilon-FC antigen [1]", "value": 371}, {"measurement": "binding result", "setting": "[2]", "value": "no binding (tested: 300 nM hFcγR3a F158V)"}, {"measurement": "Maximum response at 1840 nM hFcRn (RU)", "setting": "recombinant human hFcRn", "value": 340, "unit": "RU"}, {"measurement": "Maximum response at 100 nM hFcγR1a (RU)", "setting": "[3]", "value": 3, "unit": "RU"}, {"measurement": "Kd", "setting": "hCD3epsilon-FC antigen [4]", "value": 2.3, "unit": "nM"}]}, {"binder": "CD3_11 (antibody, human IgG1, lambda, hIgG1) heavy: not shown light: QAVVTQEPSLTVSPGGTVTLTCRSSTGAVTTSNYANWVQQKPGQAPRGLIGGTNKRAPWTPARFSGSLLGDKAALTLSGAQPEDEAEYFCALWYSNLWVFGGGTKLTVLGQPKAAPSVTLFPPSSEELQANKATLVCLISDFYPGAVTVAWKADSSPVKAGVETTTPSKQSNNKYAASSYLSLTPEQWKSHRSYSCQVTHEGSTVEKTVAPTECS", "values": [{"measurement": "binding result", "setting": "hC1q", "value": "no binding (tested: 20 nM hC1q)"}, {"measurement": "Maximum response at 1840 nM hFcRn (RU)", "setting": "recombinant human hFcRn", "value": 92, "unit": "RU"}, {"measurement": "Maximum response at 100 nM hFcγR1a (RU)", "setting": "[3]", "value": 19, "unit": "RU"}]}, {"binder": "CD3_10_YTE (antibody, human IgG1, lambda, hIgG1) heavy: EVQLVESGGGLVQPGGSLKLSCAASGFTFNTYAMNWVRQASGKGLEWVGRIRSKYNNYATYYADSVKDRFTISRDDSKSTLYLQMNSLKTEDTAVYYCVRHGNFGNSYVSWFAYWGQGTLVTVSSASTKGPSVFPLAPSSKSTSGGTAALGCLVKDYFPEPVTVSWNSGALTSGVHTFPAVLQSSGLYSLSSVVTVPSSSLGTQTYICNVNHKPSNTKVDKRVEPKSCDKTHTCPPCPAPELLGGPSVFLFPPKPKDTLYITREPEVTCVVVDVSHEDPEVKFNWYVDGVEVHNAKTKPREEQYNSCYRVVSVLTVLHQDWLNGKEYKCKVSNKALPAPIEKTISKAKGQPREPQVYTLPPSRDELTKNQVSLTCLVKGFYPSDIAVEWESNGQPENNYKTTPPVLDSDGSFFLYSKLTVDKSRWQQGNVFSCSVMHEALHNHYTQKSLSLSPGK light: QAVVTQEPSLTVSPGGTVTLTCRSSTGAVTTSNYANWVQQKPGQAPRGLIGGTNKRAPWTPARFSGSLLGDKAALTLSGAQPEDEAEYFCALWYSNLWVFGGGTKLTVLGQPKAAPSVTLFPPSSEELQANKATLVCLISDFYPGAVTVAWKADSSPVKAGVETTTPSKQSNNKYAASSYLSLTPEQWKSHRSYSCQVTHEGSTVEKTVAPTECS", "values": [{"measurement": "binding result", "setting": "hC1q", "value": "no binding (tested: 20 nM hC1q)"}, {"measurement": "Maximum response at 1840 nM hFcRn (RU)", "setting": "recombinant human hFcRn", "value": 280, "unit": "RU"}]}, {"binder": "CD3_5 (antibody, human IgG1, lambda, hIgG1) heavy: EVQLVESGGGLVQPGGSLKLSCAASGFTFNTYAMNWVRQASGKGLEWVGRIRSKYNNYATYYADSVKDRFTISRDDSKSTLYLQMNSLKTEDTAVYYCVRHGNFGNSYVSWFAYWGQGTLVTVSSASTKGPSVFPLAPSSKSTSGGTAALGCLVKDYFPEPVTVSWNSGALTSGVHTFPAVLQSSGLYSLSSVVTVPSSSLGTQTYICNVNHKPSNTKVDKRVEPKSCDKTHTCPPCPAPELCCGPSVFLFPPKPKDTLMISRTPEVTCVVVDVSHEDPEVKFNWYVDGVEVHNAKTKPREEQYCSCYRVVSVLTVLHQDWLNGKEYKCKVSNKALPAPIEKTISKAKGQPREPQVYTLPPSRDELTKNQVSLTCLVKGFYPSDIAVEWESNGQPENNYKTTPPVLDSDGSFFLYSKLTVDKSRWQQGNVFSCSVMHEALHNHYTQKSLSLSPGK light: QAVVTQEPSLTVSPGGTVTLTCRSSTGAVTTSNYANWVQQKPGQAPRGLIGGTNKRAPWTPARFSGSLLGDKAALTLSGAQPEDEAEYFCALWYSNLWVFGGGTKLTVLGQPKAAPSVTLFPPSSEELQANKATLVCLISDFYPGAVTVAWKADSSPVKAGVETTTPSKQSNNKYAASSYLSLTPEQWKSHRSYSCQVTHEGSTVEKTVAPTECS", "values": [{"measurement": "Maximum response at 125 nM hIgG1", "setting": "hCD3epsilon-FC antigen [1]", "value": 365}, {"measurement": "binding result", "setting": "hC1q", "value": "no binding (tested: 20 nM hC1q)"}, {"measurement": "Maximum response at 300 nM hFcγR3a F158V (RU)", "setting": "[5]", "value": 22, "unit": "RU"}, {"measurement": "Maximum response at 100 nM hFcγR1a (RU)", "setting": "[3]", "value": 7, "unit": "RU"}, {"measurement": "Kd", "setting": "hCD3epsilon-FC antigen [4]", "value": 3.76, "unit": "nM"}]}, {"binder": "CD3_8_YTE (antibody, human IgG1, lambda, hIgG1) heavy: EVQLVESGGGLVQPGGSLKLSCAASGFTFNTYAMNWVRQASGKGLEWVGRIRSKYNNYATYYADSVKDRFTISRDDSKSTLYLQMNSLKTEDTAVYYCVRHGNFGNSYVSWFAYWGQGTLVTVSSASTKGPSVFPLAPSSKSTSGGTAALGCLVKDYFPEPVTVSWNSGALTSGVHTFPAVLQSSGLYSLSSVVTVPSSSLGTQTYICNVNHKPSNTKVDKRVEPKSCDKTHTCPPCPAPELLCGPSVFLFPPKPKDTLYITREPEVTCVVVDVSHEDPEVKFNWYVDGVEVHNAKTKPREEQYNSTYRVVSVLTVLHQDWLNGKEYKCKVSNKALPAPIEKTISKAKGQPREPQVYTLPPSRDELTKNQVSLTCLVKGFYPSDIAVEWESNGQPENNYKTTPPVLDSDGSFFLYSKLTVDKSRWQQGNVFSCSVMHEALHNHYTQKSLSLSPGK light: QAVVTQEPSLTVSPGGTVTLTCRSSTGAVTTSNYANWVQQKPGQAPRGLIGGTNKRAPWTPARFSGSLLGDKAALTLSGAQPEDEAEYFCALWYSNLWVFGGGTKLTVLGQPKAAPSVTLFPPSSEELQANKATLVCLISDFYPGAVTVAWKADSSPVKAGVETTTPSKQSNNKYAASSYLSLTPEQWKSHRSYSCQVTHEGSTVEKTVAPTECS", "values": [{"measurement": "binding result", "setting": "hC1q", "value": "no binding (tested: 20 nM hC1q)"}, {"measurement": "Maximum response at 1840 nM hFcRn (RU)", "setting": "recombinant human hFcRn", "value": 604, "unit": "RU"}, {"measurement": "Maximum response at 100 nM hFcγR1a (RU)", "setting": "[3]", "value": 2, "unit": "RU"}]}]}
